Reference: the supplement of paper PMC9170038

System: MS2 coat protein
Test: apparent KD of MS2 coat protein; designed switch direction (-1 OFF switch, 1 ON switch): -1; higher = weaker reporter binding
How it was run: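 On Illumina chips, designed RNA switches with common flanks were made by stalled E. coli RNA polymerase. Titrations with SNAP-549-labelled MS2 coat protein, doubling from 0.7 or 1.5 nM to 3 µM, were done with no input, with 200 uM small-molecule ligand, or with an oligonucleotide input. Apparent KD is the median per design over clusters, from curve fits of normalised cluster fluorescence.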

[1] = Eterna round: R95, input ligand: microRNA oligo, concentration not stated
[2] = input ligand: microRNA oligo, concentration not stated

| Sequence | apparent KD of MS2 coat protein (input ligand: FMN 200 uM) [nM] | apparent KD of MS2 coat protein (input ligand: none) [nM] | further results |
| --- | --- | --- | --- |
| AAACAAGAAGGAUAUACAUUAUCGGAUCUUCCGGCAAUGCCACAUGAGGAUCACCCAUGUAGAAGGUCUAAAUU [Ralabi] (puzzle: Exclusion 2) | – | – | apparent KD of MS2 coat protein [1]: 12.3 nM |
| GACUAGGCAGGAUAUACAUGAGGAUCACCCAUGUGUCUGCGUUGGGCACGUGAACACCGUAGAAGGGCCUUGAC [ChP 13.04.2015 #14] (Eterna round: R96, puzzle: Exclusion 3) | 36.4 | 20.2 | apparent KD of MS2 coat protein [2]: 16.2 nM |
| AUUCCAACUUGAGGAUAUUAGUGGAACAGCCACUGAGAAGGCAGAUAACACCCUCAUAAACAUGAGGAUCACCCAUGUAGGAGA [Eternabot solution 44] (Eterna round: R96, puzzle: Exclusion NG 1) | 132 | 86.3 | apparent KD of MS2 coat protein [2]: 78.1 nM |
| UUAUUAAUUAAUAUUAUAAGAUCACAUGAGGAUCACCCAUGUCAGGAUAUCAGCUCGAUUAGAGCUGAGAAGGGACAAAUAAUA [ExNG3/15-B1] (Eterna round: R96, puzzle: Exclusion NG 3) | 1450 | 268 | apparent KD of MS2 coat protein [2]: 157 nM |
| UAUAUAUAGUAAGGAUAUGUAUUAAUUUUAUAAACAGAAGGUACUGACAUGAGGAUCACCCAUGUUUUAGUGUGGGCAUGUAGA [JMF's solution 9] (Eterna round: R96, puzzle: Exclusion NG 1) | – | – | apparent KD of MS2 coat protein [2]: 72.8 nM |
| AUAUUAAUAGUAAGGAUAUGCGUGUGUGUAGUUAUGCAGAAGGUACAUGAGGAUCACCCAUGUAUUAAUGUGUG [LRO-BmodExc4-08-Oppy's Opus] (Eterna round: R97, puzzle: Brourd's mod of Exclusion 4) | 18 | 19.7 | – |
| AGUACUAACACGUAAGUGUUAGUACAAUAAGCUUGUGAAACAUGAGGAUCACCCAUGUCCUCAUAAGCUCGUCUUAU [salish99_TOv2_r3_025] (puzzle: Sensor v3, turn-off variant 2) | – | – | apparent KD of MS2 coat protein (Eterna round: R95, input ligand: FMN 200 uM): 17.9 nM; apparent KD of MS2 coat protein [1]: 659 nM; apparent KD of MS2 coat protein (Eterna round: R95, input ligand: none): 15.4 nM |
| CCAGGCAGUGUGAGGAUAUGCUGGUGCUUGCAUCAGCAGAAGGCACAUGAGGAUCACCCAUGUGAAGAGCUUGG [Mat - Exclusion 4 - JL Mod - D97] (puzzle: Brourd's mod of Exclusion 4) | – | – | apparent KD of MS2 coat protein [1]: 21.1 nM |
| UUGAUUCAUGUAGGAUAUGCGUGGCGAAGCUAUGCAGAAGGACAUGAGGAUCACCCAUGUGCUUGCGUCCGCGUACGGAUGCUA [JL ENG1 1.23] (Eterna round: R96, puzzle: Exclusion NG 1) | 154 | 165 | apparent KD of MS2 coat protein [2]: 107 nM |
| GGACAUAAAGUCAGGAUAUUAAGGCGACCACGCGAUGAGAAGGGACAUGAGGAUCACCCAUGUGAUUCUCAUCA [Ingebive] (Eterna round: R97, puzzle: Brourd's mod of Exclusion 4) | 74.1 | 72.6 | – |
| GUAACAUGCUGGUGAUCAUACAUGAGGAUCACCCAUGUAACAAGCUUUUUGUUCGUCUUAUAAGAUUACUAGUAUGU [Stov1/10-B2] (Eterna round: R97, puzzle: Sensor, turn-off variant 1) | 33 | 39.7 | – |
| CUGCUGGAGCUUUGCUUUGGUCGUACAUGAGGAUCACCCAUGUAGGAUAUGGUAAGAUUUGCUUGCUAGAAGGAUAGAGUGGUC [salish99_ExNG3_r04_611] (Eterna round: R96, puzzle: Exclusion NG 3) | 80.9 | 49.7 | apparent KD of MS2 coat protein [2]: 78.2 nM |
| UAUAUGUCAGGAUAUUAGUUGUGUUCGAAUUUCACUUCUGCUGAGAAGGGACAUGAGGAUCACCCAUGUUCCUC [JR_Ex4_Sub006] (Eterna round: R97, puzzle: Exclusion 4) | 17.1 | 15.9 | – |
| GUAUAACAUGUAGGAUAUGCGUGGCGAAGCUAUGCAGAAGGACAUGAGGAUCACCCAUGUUUUAGCGUCUGCGUACAGAUGCAA [JL ENG1 1.39] (Eterna round: R96, puzzle: Exclusion NG 1) | 143 | 26.3 | apparent KD of MS2 coat protein [2]: 20.1 nM |
| GACUAGGCAGGAUAUACAUGAGGAUCACCCAUGUGUCUGCGUUGGGCACGUGAACACCGUAGAAGGGCCUUGAC [ChP 13.04.2015 #14] (puzzle: Exclusion 3) | – | – | apparent KD of MS2 coat protein [1]: 14.4 nM |
| AAGGGUACUUUCGGAACGACAUGAGGAUCACCCAUGUAUACUGAGGAUAUCUACUACUAAGGACGGGAGAAGGCAGUGUAAUGU [Ex NG3 #77] (Eterna round: R96, puzzle: Exclusion NG 3) | – | – | apparent KD of MS2 coat protein [2]: 13.6 nM |
| GGGAGGGAUGCAGGAUAUGCGAGGGAGGGAGGAGUAGAAGGGCAUGAGGAUCACCCAUGUGACAUGAGGAUCACCCAUGUGGGA [Success - 29% A] (Eterna round: R96, puzzle: Exclusion NG 1) | 78 | 82 | apparent KD of MS2 coat protein [2]: 80.2 nM |

| Sequence | apparent KD of MS2 coat protein (input ligand: FMN 200 uM) [nM] | apparent KD of MS2 coat protein (input ligand: none) [nM] | further results |
| --- | --- | --- | --- |
| UAAAUGUCAGGAUAUUGUUAAUUUAGUUGUUUGUAUUAGUUCGAGAAGGGACAUGAGGAUCACCCAUGUUAAAU [Ex4 #53] (Eterna round: R97, puzzle: Exclusion 4) | 45.9 | 30.4 | – |
| UAUUAGUAAGGAUAUGAGGCGUAGUACGAAAGUACUACGUCUCAGAAGGUACAUGAGGAUCACCCAUGUUCAUU [Mod of Fisker 4 - Jieux - Exclusion 4] (Eterna round: R97, puzzle: Exclusion 4) | 19.9 | 17.8 | – |
| CUGUGUAGACAGGAUAUGCUGUACAAAAGUACAGCAGAAGGGUCUACAUGAGGAUCACCCAUGUGUACCUCAUG [)mei Ex6 B26] (Eterna round: R97, puzzle: Exclusion 6) | 21.2 | 106 | – |
| ACUUACUGAGGAUAUACAUAGAUUUACAUGAGGAUCACCCAUGUUCCUCUAUGUAUAAAUGUAGAAGGCAGAAGAU [Mat - Exclusion 5 - JL Mod - D55] (Eterna round: R97, puzzle: Exclusion 5) | 64.2 | 17.8 | – |
| ACACAAAGCUAGGAUAUCCAGGCAUCUUCGGCCGGAGAAGGAGCCACAUGAGGAUCACCCAUGUGGUGAUCCUG [eternacac ex6r4 sub5] (Eterna round: R97, puzzle: Exclusion 6) | 70.9 | 50.6 | – |
| UUGUUCAGAGGAUAUACAUGAGGAUCACCCAUGUGUUUCAGCUAGGAGACUAGCGAAAGUAGAAGGCUGUACUC [salish99_ex3_r4_016] (Eterna round: R97, puzzle: Exclusion 3) | 30.5 | 25.6 | – |
| ACUUAUAGAGGAUAUACAGAAUAUUACAUGAGGAUCACCCAUGUUCUUCAAUGUAUAUAAGUAGAAGGCUAAGGAU [Mat - Exclusion 5 - JL Mod - D4] (Eterna round: R97, puzzle: Exclusion 5) | 183 | 25.4 | – |
| GUGGCACAUGAGGAUCACCCAUGUCAGGAUAUCGCGUGGUUUUUUGCGGCCGCGCGCGCGAGAAGGGACGUCUU (puzzle: Exclusion 1) | – | – | apparent KD of MS2 coat protein [1]: 31.1 nM |
| UUUAGUUCAGGAUAUGUAGAAUUAAACAUGAGGAUCACCCAUGUAGUUCCUGAUCCUGCUACAGAAGGGAACAUUU [Mat - Exclusion 5 - Eli Mod - D13] (Eterna round: R97, puzzle: Exclusion 5) | 24.8 | 17.2 | – |
| AAAUAGCUAGAGGAUAUCGGAUAGGAUUUAUUACGAGAAGGUUAGACAUGAGGAUCACCCAUGUUCUGUUGGGA [EX6 #21] (Eterna round: R97, puzzle: Exclusion 6) | 86.9 | 34.6 | – |
| GCCUGGGCAGGAUAUACAUGAGGAUCACCCAUGUCUGUUGACCGAACUCCGGAUAUAUGUAGAAGGGUCGCAGA [Eternabot (L1) Solution 100] (Eterna round: R97, puzzle: Exclusion 3) | 55.1 | 49.8 | – |
| UAUUCUAGAUAGGAUAUACUUUUUUUUUUUUUCGUAGAAGGAUCUACAUGAGGAUCACCCAUGUUUUCAGCAGU [JR_E6_Sub012] (Eterna round: R96, puzzle: Exclusion 6) | 99.6 | 71.1 | apparent KD of MS2 coat protein [2]: 65.7 nM |
| UUUAGUUCAGGAUAUGAUGAAAUUAACAUGAGGAUCACCCAUGUAGAUCCUGAAUUAACAUCAGAAGGGAACAUUU [JL-ex5-4.44 Brourd mod] (Eterna round: R97, puzzle: Exclusion 5) | 57.8 | 10.8 | – |
| AAUUAGCAAGCGAGAUCCCACAUGAGGAUCACCCAUGUGCUCGUCUUAUAAGGUACUGUGACGAUAGUCACGGUACC [Mat - Sensor, turn-off var - Eli Mod - D20] (Eterna round: R97, puzzle: Sensor, turn-off variant 1) | 15.6 | 13.5 | – |
| GAAGCACAUGAGGAUCACCCAUGUGAGGAUAUCCGUCUGGUCCGGCCGGACCAGUACCGGAGAAGGCGCGUAAA [Excls1-Ia] (puzzle: Exclusion 1) | – | – | apparent KD of MS2 coat protein [1]: 40.1 nM |
| AAUUUACAUGAGGAUCACCCAUGUGAGGAUAUUGUAUAUUUAUAGAAAUGUGGGUGUGCAAGAAGGCACAUAGG [Alacar 2] (Eterna round: R97, puzzle: Exclusion 1) | 134 | 63.6 | – |
| UAUAUGUCAGGAUAUUAGUUGAGGUGGAAUUUAGCCUAUGCUGAGAAGGGACAUGAGGAUCACCCAUGUUCCUC [JR_Ex4_Sub011] (Eterna round: R97, puzzle: Exclusion 4) | 93.9 | 19.1 | – |
